Results taken from patent publication US11767353B2, “Trail compositions with reduced immunogenicity” (Theraly Fibrosis, Inc., priority 2020, dated 2023).

Key:
[1] = tested on: orthotopic xenografts of mouse KPC cells (UN-KPC-960); test: Orthotopic pancreatic xenografts of mouse KPC cells in B6.129 mice; type: in vivo
Protocol: To generate the solid tumor, 10^7 of mouse pancreatic ductal adenocarcinoma UN-KPC-960-luc2 cells suspended in 100 μl PBS were inoculated into flank of syngeneic B6.129 mice. The KPC tumors from the donor mice were excised under sterile conditions once the tumor was grown up to […] in diameter. The donor tumors were cut into 1-1.5 mm^3 pieces using surgical blade.
For the orthotopic xenograted tumors in pancreas, a laparotomy via left flank incision was performed to expose the pancreatic head and donor tumor pieces were inserted into the pancreas of recipient B6.129 mice (n=7/group) followed by closing in two layers with 5-0 absorbable sutures. Two weeks after the tumor transplantation, mice were injected with TLY012 via intraperitoneal route (10 mg/kg, every other day) and/or anti-PD-L1 (B7-H1, anti-mouse PD-L1, 2.5 mg/kg, twice of a week) for 2 weeks. Transplanted animals were imaged once a week for 5 weeks. Bioluminescent images using IVIS were acquired 10-15 minutes after intraperitoneal administration of D-Luciferin (150 mg/kg) (GOLDBIO, St. Louis, Mo., USA).
For tumor volume studies, orthotopic xenograted tumors were generated in pancreas. A laparotomy via left flank incision was performed to expose the pancreatic head and 5×10^6 of UN-KPC-960 cells were transplanted into the pancreas of recipient B6.129 mice (n=5/group) followed by closing in two layers with 5-0 absorbable sutures. four weeks after the transplantation, mice were injected with TLY012 via intraperitoneal route (10 mg/kg, every other day) or saline for 2 weeks. Then excised tumors were studied by: a) captured image and tumor volume of ½ab^2, and b) measured collagen and α-SMA positive area after TLY012 treatment using Sirius red and anti-α-SMA staining
Paraffin sectioned KPC tumor samples were used for immunofluorescence staining (IF) stain with α-SMA and either CD4 or CD8. Tissues were deparaffinized, hydrated, and heated in citrate buffer (Thermo Fisher Scientific) by microwave for antigen retrieval. Slides were washed, treated with blocking solution (3% of normal horse serum, Vectastain ABC System, Vector Labs, Burlingame, Calif.), and primary antibodies, rabbit anti-CD4 antibody (Abcam, ab183685) or rabbit anti-CD8 antibody (Abcam, ab217344) were applied with mouse anti-α-SMA antibody. Tissues were incubated overnight at 4° C., washed and anti-rabbit IgG conjugated with Alexa fluor 488 and anti-mouse IgG conjugated with Alexa fluor 633 (Thermo Fisher Scientific) were applied and incubated at room temperature. After washing the slides, samples were mounted with Fluorescence Mounting Medium with DAPI and captured under Axiovert microscope (Carl Zeiss Microscopy, LLC. Thornwood, N.Y.).
The excised tumors were immediately fixed in 10% buffered formalin, embedded in paraffin, and cut at 4 μm thickness. The sections were then stained for Masson's Trichrome or Sirius-Red staining for determining the collagen deposition. Stained tissues were imaged under a light microscope (Nikon Eclipse E600 connected with Nikon DS-Fi2 camera, Nikon USA). Stained pancreatic tissues were randomly selected 10 photos from individual mice, and the positively stained area was quantified using Image J software (NIH, Bethesda, Md.).

[2] = Single-dose pharmacokinetics in Cynomolgus monkeys (ELISA, serum)
Text: PK parameters were addressed in Cynomolgus monkeys. This was a single dose, parallel group, dose escalation study in 5 males and 5 females normal Cynomolgus monkeys ranging in age from 34 to 44 months. At the start date of the study body weights ranged from 2.9 to 3.9 kg for males and 2.9 to 3.2 kg for females. Blood samples were collected at time point indicated in Table 3 and serum samples prepared for analyzing drug levels.
A sandwich enzyme-linked immunosorbent assay (ELISA) for human TRAIL was developed to measure the concentrations of TLY012 in monkey serum. Briefly, serum samples were diluted in 0.5% normal monkey serum and incubated with anti-TRAIL capturing antibodies immobilized on ELISA plates. Test samples were analyzed at 1:200-1:168000 dilutions (depending on the predicted concentrations) to fit into the range of the standard curve (97 pg/mL-12.5 ng/mL). All data within the assay range were reported and provided for pharmacokinetic analysis
A compartment model independent pharmacokinetic analysis was conducted on dose and serum concentration-time data with Phoenix 64 WinNonlin software. The parameters addressed: maximum serum concentrations (Cmax), time (Tmax) to reach Cmax, time (Tlast) to reach the last quantifiable concentration (Clast), elimination half-life (t½). Area under the curve from zero to Clast (AUClast), the total area under the curve from zero to infinity (AUC). Total systemic clearance (CL) and steady state volume of distribution (Vss) was calculated for IV group. Clearance (CL/F) and volume of distribution (Vz/F) and bioavailability (F) was computed for the SC groups. In addition, dose-exposure relationship was evaluated by linear regression analysis.

TLY012: PEGylated (5 kDa PEG-aldehyde) recombinant human TRAIL (114-281) fused to modified isoleucine zipper (miLZ) at N-terminus; SEQ ID NO:30 trimer
Percent survival ([1]; Day 0): 100% | Bioluminescence activity (Total Counts), Mean ([1]; Day 14): 72300 Total Counts | Bioluminescence activity (Total Counts), Mean ([1]; Day 21): 233157.143 Total Counts | Bioluminescence activity (Total Counts), Mean ([1]; Day 28): 185128.571 Total Counts | Bioluminescence activity (Total Counts), Mean ([1]; Day 35): 390357.143 Total Counts | Percent survival ([1]; Day 35): 100% | tumor volume, Average ([1]; TLY012 i.p. 10 mg/kg every other day and/or anti-PD-L1 2.5 mg/kg twice a week, 2 weeks): 135.0695 mm3 | levels of collagen (fibrosis), immunohistochemistry ([1]; TLY012 i.p. 10 mg/kg every other day for 2 weeks): decreased the levels of collagen | tumor volume compared to the saline-treated group ([1]; TLY012 i.p. 10 mg/kg every other day for 2 weeks, FIG. 14): reduced the tumor volume | cytotoxic T cell (CD4, CD8) infiltration to the tumor site ([1]; double immunofluorescence staining, vs saline): enhanced cytotoxic T cell infiltration to the tumor site | AUC ([2]; IV 10 mg/kg, female (ID 401)): 7780 µg·h/mL | AUCext ([2]; IV 10 mg/kg, female (ID 401)): 0.185% | Cmax ([2]; IV 10 mg/kg, female (ID 401)): 319 µg/mL | Tlast ([2]; IV 10 mg/kg, female (ID 401)): 360 h | Tmax ([2]; IV 10 mg/kg, female (ID 401)): 0.250 h | AUC ([2]; IV 10 mg/kg, male (ID 1)): 8590 µg·h/mL | AUCext ([2]; IV 10 mg/kg, male (ID 1)): 0.411% | Cmax ([2]; IV 10 mg/kg, male (ID 1)): 289 µg/mL | Tlast ([2]; IV 10 mg/kg, male (ID 1)): 360 h | Tmax ([2]; IV 10 mg/kg, male (ID 1)): 0.250 h | AUC ([2]; SC 2 mg/kg, female (ID 501)): 836 µg·h/mL | AUCext ([2]; SC 2 mg/kg, female (ID 501)): 1.45% | Cmax ([2]; SC 2 mg/kg, female (ID 501)): 12.1 µg/mL | F (absolute bioavailability) ([2]; SC 2 mg/kg, female (ID 501)): 53.7% | Tlast ([2]; SC 2 mg/kg, female (ID 501)): 264 h | Tmax ([2]; SC 2 mg/kg, female (ID 501)): 12.0 h | AUC ([2]; SC 2 mg/kg, male (ID 101)): 642 µg·h/mL | AUCext ([2]; SC 2 mg/kg, male (ID 101)): 0.779% | Cmax ([2]; SC 2 mg/kg, male (ID 101)): 10.8 µg/mL | F (absolute bioavailability) ([2]; SC 2 mg/kg, male (ID 101)): 37.4% | Tlast ([2]; SC 2 mg/kg, male (ID 101)): 264 h | Tmax ([2]; SC 2 mg/kg, male (ID 101)): 6.00 h | AUC ([2]; SC 10 mg/kg, female (ID 601)): 6190 µg·h/mL | AUCext ([2]; SC 10 mg/kg, female (ID 601)): 0.266% | Cmax ([2]; SC 10 mg/kg, female (ID 601)): 52.7 µg/mL | F (absolute bioavailability) ([2]; SC 10 mg/kg, female (ID 601)): 79.6% | Tlast ([2]; SC 10 mg/kg, female (ID 601)): 264 h | Tmax ([2]; SC 10 mg/kg, female (ID 601)): 48.0 h | AUC ([2]; SC 10 mg/kg, male (ID 201)): 6480 µg·h/mL | AUCext ([2]; SC 10 mg/kg, male (ID 201)): 0.0231% | Cmax ([2]; SC 10 mg/kg, male (ID 201)): 51.7 µg/mL | F (absolute bioavailability) ([2]; SC 10 mg/kg, male (ID 201)): 75.4% | Tlast ([2]; SC 10 mg/kg, male (ID 201)): 360 h | Tmax ([2]; SC 10 mg/kg, male (ID 201)): 24.0 h | AUC ([2]; SC 50 mg/kg, female (ID 701)): 44200 µg·h/mL | AUCext ([2]; SC 50 mg/kg, female (ID 701)): 1.28% | Cmax ([2]; SC 50 mg/kg, female (ID 701)): 296 µg/mL | F (absolute bioavailability) ([2]; SC 50 mg/kg, female (ID 701)): 114% | Tlast ([2]; SC 50 mg/kg, female (ID 701)): 360 h | Tmax ([2]; SC 50 mg/kg, female (ID 701)): 24.0 h | AUC ([2]; SC 50 mg/kg, male (ID 301)): 33400 µg·h/mL | AUCext ([2]; SC 50 mg/kg, male (ID 301)): 3.13% | Cmax ([2]; SC 50 mg/kg, male (ID 301)): 186 µg/mL | Tlast ([2]; SC 50 mg/kg, male (ID 301)): 264 h | Tmax ([2]; SC 50 mg/kg, male (ID 301)): 72.0 h | F (absolute bioavailability) ([2]; SC 50 mg/kg, male (ID 301), 50 mg/kg): 77.88% | F (absolute bioavailability) ([2]; SC 50 mg/kg, male (ID 301), listed as TYL012, 50 mg/kg): 77.8% | dose relationship of maximum serum (Cmax) concentrations ([2]; dose range 2-50 mg/kg): increased dose proportionately
